B1: MMP-2: matrix metalloproteinase subjected to MT1-MMP sandwich EIA for cross reactivity (protein)
chain: APSPIIKFPGDVAPKTDKELAVQYLNTFYGCPKESCNLFVLKDTLKKMQKFFGLPQTGDLDQNTIETMRKPRCGNPDVANYNFFPRKPKWDKNQITYRIIGYTPDLDPETVDDAFARAFQVWSDVTPLRFSRIHDGEADIMINFGRWEHGDGYPFDGKDGLLAHAFAPGTGVGGDSHFDDDELWTLGEGQVVRVKYGNADGEYCKFPFLFNGKEYNSCTDTGRSDGFLWCSTTYNFEKDGKYGFCPHEALFTMGGNAEGQPCKFPFRFQGTSYDSCTTEGRTDGYRWCGTTEDYDRDKKYGFCPETAMSTVGGNSEGAPCVFPFTFLGNKYESCTSAGRSDGKMWCATTANYDDDRKWGFCPDQGYSLFLVAAHEFGHAMGLEHSQDPGALMAPIYTYTKNFRLSQDDIKGIQELYGASPDIDLGTGPTPTLGPVTPEICKQDIVFDGIAQIRGEIFFFKDRFIWRTVTPRDKPMGPLLVATFWPELPEKIDAVYEAPQEEKAVFFAGNEYWIYSASTLERGYPKPLTSLGLPPDVQRVDAAFNWSKNKKTYIFAGDKFWRYNEVKKKMDPGFPKLIADAWNAIPDNLDAVVDLQGGGHSYFFKGAYYLKLENQSLKSVKFGSIKSDWLGC
B2: MMP-9: matrix metalloproteinase subjected to MT1-MMP sandwich EIA for cross reactivity (protein)
chain: APRQRQSTLVLFPGDLRTNLTDRQLAEEYLYRYGYTRVAEMRGESKSLGPALLLLQKQLSLPETGELDSATLKAMRTPRCGVPDLGRFQTFEGDLKWHHHNITYWIQNYSEDLPRAVIDDAFARAFALWSAVTPLTFTRVYSRDADIVIQFGVAEHGDGYPFDGKDGLLAHAFPPGPGIQGDAHFDDDELWSLGKGVVVPTRFGNADGAACHFPFIFEGRSYSACTTDGRSDGLPWCSTTANYDTDDRFGFCPSERLYTQDGNADGKPCQFPFIFQGQSYSACTTDGRSDGYRWCATTANYDRDKLFGFCPTRADSTVMGGNSAGELCVFPFTFLGKEYSTCTSEGRGDGRLWCATTSNFDSDKKWGFCPDQGYSLFLVAAHEFGHALGLDHSSVPEALMYPMYRFTEGPPLHKDDVNGIRHLYGPRPEPEPRPPTTTTPQPTAPPTVCPTGPPTVHPSERPTAGPTGPPSAGPTGPPTAGPSTATTVPLSPVDDACNVNIFDAIAEIGNQLYLFKDGKYWRFSEGRGSRPQGPFLIADKWPALPRKLDSVFEERLSKKLFFFSGRQVWVYTGASVLGPRRLDKLGLGADVAQVTGALRSGRGKMLLFSGRRLWRFDVKAQMVDPRSASEVDRMFPGVPLDTHDVFQYREKAYFCQDRFYWRVSSRSELNQVDQVGYVTYDILQCPED
B3: MMP-19: matrix metalloproteinase subjected to MT1-MMP sandwich EIA for cross reactivity (protein)
chain: RVLGLAEVAPVDYLSQYGYLQKPLEGSNNFKPEDITEALRAFQEASELPVSGQLDDATRARMRQPRCGLEDPFNQKTLKYLLLGRWRKKHLTFRILNLPSTLPPHTARAALRQAFQDWSNVAPLTFQEVQAGAADIRLSFHGRQSSYCSNTFDGPGRVLAHADIPELGSVHFDEDEFWTEGTYRGVNLRIIAAHEVGHALGLGHSRYSQALMAPVYEGYRPHFKLHPDDVAGIQALYGKKSPVIRDEEEEETELPTVPPVPTEPSPMPDPCSSELDAMMLGPRGKTYAFKGDYVWTVSDSGPGPLFRVSALWEGLPGNLDAAVYSPRTQWIHFFKGDKVWRYINFKMSPGFPKKLNRVEPNLDAALYWPLNQKVFLFKGSGYWQWDELARTDFSSYPKPIKGLFTGVPNQPSAAMSWQDGRVYFFKGKVYWRLNQQLRVEKGYPRNISHNWMHCRPRTIDTTPSGGNTTPSGTGITLDTTLSATETTFEY
B4: MMP-20: matrix metalloproteinase subjected to MT1-MMP sandwich EIA for cross reactivity (protein)
chain: APSLVAASPRTWRNNYRLAQAYLDKYYTNKEGHQIGEMVARGSNSMIRKIKELQAFFGLQVTGKLDQTTMNVIKKPRCGVPDVANYRLFPGEPKWKKNTLTYRISKYTPSMSSVEVDKAVEMALQAWSSAVPLSFVRINSGEADIMISFENGDHGDSYPFDGPRGTLAHAFAPGEGLGGDTHFDNAEKWTMGTNGFNLFTVAAHEFGHALGLAHSTDPSALMYPTYKYKNPYGFHLPKDDVKGIQALYGPRKVFLGKPTLPHAPHHKPSIPDLCDSSSSFDAVTMLGKELLLFKDRIFWRRQVHLRTGIRPSTITSSFPQLMSNVDAAYEVAERGTAYFFKGPHYWITRGFQMQGPPRTIYDFGFPRHVQQIDAAVYLREPQKTLFFVGDEYYSYDERKRKMEKDYPKNTEEEFSGVNGQIDAAVELNGYIYFFSGPKTYKYDTEKEDVVSVVKSSSWIGC
B5: MMP-1: matrix metalloproteinase subjected to MT1-MMP sandwich EIA for cross reactivity (protein)
chain: FPATLETQEQDVDLVQKYLEKYYNLKNDGRQVEKRRNSGPVVEKLKQMQEFFGLKVTGKPDAETLKVMKQPRCGVPDVAQFVLTEGNPRWEQTHLTYRIENYTPDLPRADVDHAIEKAFQLWSNVTPLTFTKVSEGQADIMISFVRGDHRDNSPFDGPGGNLAHAFQPGPGIGGDAHFDEDERWTNNFREYNLHRVAAHELGHSLGLSHSTDIGALMYPSYTFSGDVQLAQDDIDGIQAIYGRSQNPVQPIGPQTPKACDSKLTFDAITTIRGEVMFFKDRFYMRTNPFYPEVELNFISVFWPQLPNGLEAAYEFADRDEVRFFKGNKYWAVQGQNVLHGYPKDIYSSFGFPRTVKHIDAALSEENTGKTYFFVANKYWRYDEYKRSMDPGYPKMIAHDFPGIGHKVDAVFMKDGFFYFFHGTRQYKFDPKTKRILTLQKANSWFNCRKN

target: T1, MT1-MMP sandwich EIA (solid-phase antibody 222-2D12, labeled antibody 222-1D8) (Homo sapiens, UniProt P50281); experiment: Specificity test: cross reactivity on MT1-MMP sandwich EIA; format: binding; details: concentration 1 μg/mL; blank 0.027
T1 construct: 488 amino acid residues of Δ MT1-MMP (G^48 to G^53) which lacks the signal peptide and part of the propeptide region; made in house; host or cells: E. coli
Description: Monoclonal antibodies (e.g., 333-2D12 (IgG)) were dissolved in 0.1 M phosphate buffer, pH 7.0 to a concentration of 25 μg/mL. The monoclonal antibody solution was added to each well of a 96-well microwell (Maxisorp; Nunc-Immuno Module) at 100 μL per well and allowed to stand at 4° C. for 24 hrs. […] The solid-phase antibodies were preserved at 4° C.
Standard antigens or samples to be assayed were dispensed into a 96-well vinyl plate at 25 μL each. To each well was added a dilution buffer in aliquots of 100 μL, followed by mixing. An aliquot (100 μL) of the resultant mixture was taken out, dispensed into an antibody-solid phased plate from which a blocking solution was removed by washing. The plate was then allowed to stand at 4° C. for 16 hours.
[…] antibody 222-1D8 (Fab′-HRP) was diluted with a blocking solution to a concentration of 0.4 μg/mL. The reaction solution was removed from the antibody-solid phased plate where the primary reaction was completed. The plate was washed with a washing liquid three times and an aliquot (100 μL) of the labeled antibody solution was added to each well. The plate was allowed to stand at room temperature for 1 hour.
After completion of the reaction, the labeled antibody solution was removed. The plate was then washed with a washing liquid three times, and a TMB solution (CALBIOCHEM) was added to each well at 100 μL. The mixture was allowed to react at room temperature for 20 minute. The reaction was stopped with the addition of 2 N sulfuric acid at 100 μL per well. The reaction mixture was measured for A450 with a microplate reader (MPR-A4; Tosoh).
Each of MMP-1, -2, -3, -4, -7, -8, -9, -13, -19 and -20 was prepared to give a concentration of 1 μg/mL, and subjected to MT1-MMP sandwich EIA. A450 was measured. When MT1-MMP was subjected to sandwich EIA at 0.16 μg/mL, the absorbance was 2.206. However, when the above MMPs were subjected, their absorbances were only an extent of 0.024 to 0.071. Accordingly, it has been verified that MT1-MMP sandwich EIA is specifically reactive with MT1-MMP.

| A450 | Molecule |
| --- | --- |
| 0.024 | B1 |
| 0.039 | B2 |
| 0.027 | B3 |
| 0.071 | B4 |
| 0.025 | B5 |

— patent US20040096899A1, “Immunoassay method for membrane-bound matrix metalloprotease” (priority 2000, published 2004)
